According to US20080200654A1 (KIRIN PHARMA, published 2008):
Numbering of substitutions follows the chain as printed.

T1: A33 antigen (full-length human A33) (human, UniProt Q99795 22-319)
T1 construct: Class I cell membrane protein of the Ig superfamily; also called GPA33; human A33 antigen
T1 sequence: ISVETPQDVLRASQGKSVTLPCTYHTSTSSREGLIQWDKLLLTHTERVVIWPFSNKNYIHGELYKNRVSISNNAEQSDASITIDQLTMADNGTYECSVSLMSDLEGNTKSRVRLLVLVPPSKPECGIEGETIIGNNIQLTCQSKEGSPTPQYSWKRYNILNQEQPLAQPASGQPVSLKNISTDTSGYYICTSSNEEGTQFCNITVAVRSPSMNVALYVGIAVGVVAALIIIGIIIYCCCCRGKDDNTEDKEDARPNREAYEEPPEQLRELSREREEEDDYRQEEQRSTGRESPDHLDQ

B1: recM10 (antibody, V domains shown)
VH: QLQVQESGPGLVKPSETLSLICTVSGGSIRTSGYYWGWFRQPPGKGLEWIGTSHNSGSTYYNPSLKSRVTISVDTSKNQFSLKLNSVTAADTAVYYCARQGYDFKVNIDVWGQGTTVTVSS
VL: EIVLTQSPATLSLSPGERATLSCRASQSVSSYLAWYQQKPGQAPRLLIYDASNRATGIPARFSGSGSGTDFTLTISSLEPEDFAVYYCQQRSNWPLTFGGGTKVEIK
notes: also called recM10 antibody; M10 recombinant antibody
B2: recM165 (antibody, V domains shown)
VH: QVQLVESGGGVVQPGRSLRLSCAASGFTFSYYGMHWVRQAPGKGLEWVAVIWYDGSNKYYADSVKGRFTISRDNSKKTLYLQMNSLRAEDTAVYYCARDGHSSGWGDFQHWGQGTLVTVSS
VL: B1 VL with Y32S, V85I, L96P, G100Q
notes: also called recM165 antibody; M165 recombinant antibody
B3: recQ54 (antibody, V domains shown)
VH: EVQLLESGGGLVQPGGSLRLSCAASGFTFSSYAMSWVRQAPGKGLEWVSDISGSGGYTYYADSVKGRFTISRDNSKNTLYLQMNSLRAEDTAVYYCAKTGDGSGSYSPDSWGQGTLVTVSS
VL: DIQMTQSPSSLSASVGDRVTITCRASQGISRWLAWYQQKPEKAPKSLIYAASSLQSGVPSRFSGSGSGTDFTLTISSLQPEDFATYYCQQYNSYPYTFGQGTKLEIK
notes: also called recQ54 antibody; Q54 recombinant antibody
B4: rec263 (antibody, V domains shown)
VH: EVQLLESGGGLVQPGGSLRLSCAASGFTFSSYAMSWIRQAPGKGLEWVSAISASGGSTYYADSVKGRFTISRDNSKNTLYLQMNSLRAEDTAVYYCAKDRIVGATNYYYGMDVWGQGTTVTVSS
VL: DIQMTQSPPSVSASVGDRVTITCRASQGISSWLAWYQHKPGKAPKLLIYGASSLQSGVPSRFSGSGSGTDFTLTISSLQPEDFATYYCQQANSFPITFGQGTRLEIK
notes: also called rec263 antibody; rec263A1
B5: chimeric anti-A33 antibody (antibody, V domains shown)
VH: EVKLVESGGGLVKPGGSLKLSCAASGFAFSTYDMSWVRQTPEKRLEWVATISSGGSYTYYLDSVKGRFTISRDSARNTLYLQMSSLRSEDTALYYCAPTTVVPFAYWGQGTLVTVSS
VL: DIVMTQSQKFMSTSVGDRVSITCKASQNVRTVVAWYQQKPGQSPKTLIYLASNRHTGVPDRFTGSGSGTDFTLTISNVQSEDLADYFCLQHWSYPLTFGSGTKLEVK
notes: Mouse variable regions with human IgG1 heavy chain and light chain constant regions (N5KG1-Val Lark vector); also called cA33; chimeric anti-A33 recombinant antibody
B6: recN26 (antibody, V domains shown)
VH: QVQLVESGGGVVQPGRSLRLSCAASGFTFSHYGMHWVRQAPGKGLEWVALIWYDGSNKYYADSVKGRFTISRDNSKNTLYLQMNSLRAEDTAVYYCARDPLAAGTSYFDYWGQGTLVTVSS
VL: EIVLTQSPDFQSVTPKEKVTITCRASQSIGSSLHWYQQKPDQSPKLLIKYASQSFSGVPSRFSGSGSGTDFTLTINSLEAEDAAAYYCHQSSSLPFTFGPGTKVDIK
notes: also called recN26 antibody; N26 recombinant antibody

Tests used:
[1] = biological target: T1, A33 antigen (full-length human A33); test: FCM competition on COLO205 cells as in Example 10; competitor mouse anti-A33 antibody
Method: (§1) Whether or not each type of purified monoclonal antibody obtained in Example 8 recognizes an epitope similar to that of the mouse anti-A33 antibody was examined by a competition test using FCM. The COLO205 cell line was suspended at a concentration of 2×10⁶/ml in a PBS Staining Buffer (SB) containing 0.1% NaN₃ and 2% FCS. The cell suspension (50 μl/well) was dispensed in a 96-well round bottom plate (produced by Becton, Dickinson and Company). The purified mouse anti-A33 antibody prepared in Example 1 was not added or added at a concentration of 100 μg/ml to the wells containing each type of purified monoclonal antibody (1 μg/ml and 50 μl), followed by 30 minutes of incubation on ice. A mouse negative control (containing no purified anti-A33 antibody added thereto) was prepared as follows. A human IgG1 antibody (produced by Sigma) was adjusted at a concentration of 1 μg/ml with SB and then 50 μl of the solution was added, followed by 30 minutes of incubation on ice. The resultant was washed twice with SB and then 50 μl of FITC fluorescence-labeled goat anti-human IgG F(ab′)₂ antibody (produced by IBL) was added, followed by 30 minutes of incubation on ice. The resultant was washed once with SB and then the resultant was suspended in 300 μl of a FACS buffer. The mean fluorescence intensity of each cell line was measured by FACS (FACScan produced by Becton, Dickinson and Company). The inhibition (%) between each type of purified monoclonal antibody and the mouse A33 antibody was calculated by the following formula: […]

[2] = biological target: T1, A33 antigen (full-length human A33); test: FCM on COLO205 cells; grade = ng/ml to reach half MFI 45 (+++ 10<=x<100, ++ 100<=x<1000, + 1000<=x<10000)
[3] = biological target: T1, A33 antigen (full-length human A33); test: FCM on LS174T cells; grade = ng/ml to reach half MFI 100 (+++ 10<=x<100, ++ 100<=x<1000, + 1000<=x<10000)
[4] = biological target: T1, A33 antigen (full-length human A33); test: FCM on NCI-H508 cells; grade = ng/ml to reach half MFI 175 (+++ 10<=x<100, ++ 100<=x<1000, + 1000<=x<10000)
[5] = biological target: T1, A33 antigen (full-length human A33); test: FCM competition on COLO205 cells; antibody 1 µg/ml, competitor mouse anti-A33 antibody 100 µg/ml
Method: as §1

[6] = biological target: T1, A33 antigen (full-length human A33); test: FCM on LoVo cells; grade = ng/ml to reach half MFI 25 (+++ 10<=x<100, ++ 100<=x<1000, + 1000<=x<10000)
From the text: (§2) The reactivity of each type of purified monoclonal antibody obtained in Example 8 to A33-antigen-expressing human colorectal cancer cell line COLO205 cells, LoVo cells (ATCC No. CCL-229), LS174T cells (ATCC No. CL-188), and NCI-H508 cells (ATCC No. CCL-253) was examined by FCM. Human colorectal cancer cell line HT-29 cells (ATCC No. HTB-38) expressing no A33 antigen were also examined as negative control cells. Each cell line was suspended at a concentration of 2×10⁶/ml in a PBS Staining Buffer (SB) containing 0.1% NaN₃ and 2% FCS. The cell suspension (50 μl/well) was dispensed in a 96-well round bottom plate (produced by Becton, Dickinson and Company). 50 μl of each type of purified monoclonal antibody (adjusted using SB at a concentration of 2000, 400, 80, or 16 ng/ml) was added, and then incubation was performed on ice for 30 minutes. A negative control was prepared depending on each subclass. Specifically, a human IgG1 antibody (produced by Sigma) was adjusted using SB at a concentration of 2000, 400, 80, or 16 ng/ml. 50 μl of the solution was added, followed by 30 minutes of incubation on ice. The resultant was washed twice with SB and then 50 μl of an FITC fluorescence-labeled goat anti-human IgG F(ab′)₂ antibody (produced by Southern Biotech), followed by 30 minutes of incubation on ice. The resultant was washed once with SB and then the resultant was suspended in 300 μl of a FACS buffer. The mean fluorescence intensity of each cell line was measured by FACS (FACScan produced by Becton, Dickinson and Company).
(§3) For COLO205 cells, the half value of the mean fluorescence intensity was determined to be 90. For LoVo cells, the half value of the mean fluorescence intensity was determined to be 25. […] When an antibody concentration required to reach such value was 10<=x<100 ng/ml, the reactivity was represented by +++, when the same was 100<=x<1000 ng/ml, the reactivity was represented by ++, and when the same was 1000<=x<10000 ng/ml, the reactivity was represented by +. When no binding was observed, the reactivity was represented by −.

[7] = biological target: T1, A33 antigen (full-length human A33); test: FCM on COLO205 cells; grade = ng/ml to reach half MFI 90 (+++ 10<=x<100, ++ 100<=x<1000, + 1000<=x<10000)
From the text: as §2, §3

[8] = biological target: T1, A33 antigen (full-length human A33); test: FCM on LS174T cells; grade = ng/ml to reach half MFI 125 (+++ 10<=x<100, ++ 100<=x<1000, + 1000<=x<10000)
From the text: as §2, §3

[9] = biological target: T1, A33 antigen (full-length human A33); test: FCM on NCI-H508 cells; grade = ng/ml to reach half MFI 125 (+++ 10<=x<100, ++ 100<=x<1000, + 1000<=x<10000)
From the text: as §2, §3

| Binder | Inhibition (%) [1] [%] | antibody concentration required to reach half value of the mean fluorescence intensity [2] [ng/mL] | antibody concentration required to reach half value of the mean fluorescence intensity [3] [ng/mL] | antibody concentration required to reach half value of the mean fluorescence intensity [4] [ng/mL] | Inhibition (%) [5] [%] | antibody concentration required to reach half value of mean fluorescence intensity [6] [ng/mL] | antibody concentration required to reach half value of mean fluorescence intensity [7] [ng/mL] | antibody concentration required to reach half value of mean fluorescence intensity [8] [ng/mL] | antibody concentration required to reach half value of mean fluorescence intensity [9] [ng/mL] |
| --- | --- | --- | --- | --- | --- | --- | --- | --- | --- |
| B1 | 0.2 | 10 to 100 | 10 to 100 | 10 to 100 |  |  |  |  |  |
| B2 | 93.4 | 100 to 1000 | 100 to 1000 | 100 to 1000 |  |  |  |  |  |
| B3 | 44.6 | 10 to 100 | 10 to 100 | 10 to 100 |  |  |  |  |  |
| B4 | 15.3 | 100 to 1000 | 100 to 1000 | 100 to 1000 |  |  |  |  |  |
| B5 | 94.6 | 10 to 100 | 10 to 100 | 10 to 100 | 94.2 | 10 to 100 | 10 to 100 | 100 to 1000 | 100 to 1000 |
| B6 | 95.3 | 100 to 1000 | 10 to 100 | 10 to 100 |  |  |  |  |  |
